Laboratory results reported in patent US20050147555A1.
Positions of bridges follow the written chain, without caps; N, C: chain ends. Groups on a side chain read outwards from the residue. *: point of attachment. Biotin = O=C1N[C@H]2[C@H](CS[C@H]2CCCCC(=O)*)N1; AEEA = NCCOCCOCC(=O)O

Molecular target: KDR (VEGFR-2, Flk-1), full-length receptor on cells (human), P35968
Test: competition with 125I-VEGF on KDR-transfected 293H cells
Settings: remark: other sources report otherwise

Chain of KDR (VEGFR-2, Flk-1), full-length receptor on cells (human), P35968 (P35968 20-1356): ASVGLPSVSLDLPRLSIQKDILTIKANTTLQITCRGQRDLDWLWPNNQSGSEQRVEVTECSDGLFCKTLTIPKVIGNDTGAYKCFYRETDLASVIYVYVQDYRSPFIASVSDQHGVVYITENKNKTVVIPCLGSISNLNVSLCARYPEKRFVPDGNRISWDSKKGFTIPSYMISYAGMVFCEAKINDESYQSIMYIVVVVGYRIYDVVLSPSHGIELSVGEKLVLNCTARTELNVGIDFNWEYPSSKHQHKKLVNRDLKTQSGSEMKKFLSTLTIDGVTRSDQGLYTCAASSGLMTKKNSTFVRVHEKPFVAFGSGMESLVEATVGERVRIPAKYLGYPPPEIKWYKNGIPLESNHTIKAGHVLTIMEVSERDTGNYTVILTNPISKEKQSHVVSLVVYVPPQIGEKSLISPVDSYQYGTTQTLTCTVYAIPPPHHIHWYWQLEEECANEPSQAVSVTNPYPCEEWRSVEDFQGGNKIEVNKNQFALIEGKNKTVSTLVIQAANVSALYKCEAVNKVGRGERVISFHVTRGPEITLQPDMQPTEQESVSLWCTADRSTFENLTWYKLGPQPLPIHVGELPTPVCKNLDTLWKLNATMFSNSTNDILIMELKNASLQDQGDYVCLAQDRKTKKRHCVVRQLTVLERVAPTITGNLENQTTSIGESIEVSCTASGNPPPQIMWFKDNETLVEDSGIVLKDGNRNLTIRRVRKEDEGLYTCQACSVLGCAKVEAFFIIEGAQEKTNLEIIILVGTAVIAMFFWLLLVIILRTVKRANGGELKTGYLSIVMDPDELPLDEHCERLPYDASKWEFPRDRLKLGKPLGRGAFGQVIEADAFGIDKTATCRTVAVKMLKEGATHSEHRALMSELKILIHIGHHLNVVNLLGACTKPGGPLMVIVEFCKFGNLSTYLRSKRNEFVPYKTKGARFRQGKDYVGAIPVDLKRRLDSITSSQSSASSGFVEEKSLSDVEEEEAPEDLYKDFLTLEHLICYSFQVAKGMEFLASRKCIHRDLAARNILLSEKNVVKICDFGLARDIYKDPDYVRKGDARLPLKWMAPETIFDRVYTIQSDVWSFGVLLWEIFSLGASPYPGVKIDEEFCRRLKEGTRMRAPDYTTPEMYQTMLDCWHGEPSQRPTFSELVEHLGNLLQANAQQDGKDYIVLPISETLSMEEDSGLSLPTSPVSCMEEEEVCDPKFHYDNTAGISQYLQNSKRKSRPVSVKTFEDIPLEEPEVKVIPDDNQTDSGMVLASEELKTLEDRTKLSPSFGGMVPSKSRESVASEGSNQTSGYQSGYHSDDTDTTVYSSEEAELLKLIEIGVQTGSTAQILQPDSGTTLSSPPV

% inhibition of 125I-VEGF binding at 0.3 µM: 24.4%
% inhibition of 125I-VEGF binding at 30 µM: 48%
B1: P5-XB (peptide)
peptide: Ac-AGPKWCEEDWYYCMITGTGGGK([AEEA-AEEA-Biotin])-NH2
modifications: disulfide 6-13
SMILES: CC[C@H](C)[C@H](NC(=O)[C@H](CCSC)NC(=O)[C@@H]1CSSC[C@H](NC(=O)[C@H](Cc2c[nH]c3ccccc23)NC(=O)[C@H](CCCCN)NC(=O)[C@@H]2CCCN2C(=O)CNC(=O)[C@H](C)NC(C)=O)C(=O)N[C@@H](CCC(=O)O)C(=O)N[C@@H](CCC(=O)O)C(=O)N[C@@H](CC(=O)O)C(=O)N[C@@H](Cc2c[nH]c3ccccc23)C(=O)N[C@@H](Cc2ccc(O)cc2)C(=O)N[C@@H](Cc2ccc(O)cc2)C(=O)N1)C(=O)N[C@H](C(=O)NCC(=O)N[C@H](C(=O)NCC(=O)NCC(=O)NCC(=O)N[C@@H](CCCCNC(=O)COCCOCCNC(=O)COCCOCCNC(=O)CCCC[C@@H]1SC[C@@H]2NC(=O)N[C@@H]21)C(N)=O)[C@@H](C)O)[C@@H](C)O
